# Measurements from patent US20260001928A1 (CORTERIA PHARMACEUTICALS, priority 2022, published 2026).
# *1 amine or outer side, *2 acyl side, *3 side chain or, on linkers, in order; H or OH if unused. Side-chain parts run from the residue outwards. [ ]: non-standard residue; d: D form. The star is where a group is joined. C18 diacid = O=C(O)CCCCCCCCCCCCCCCCC(=O)*; C16 diacid = O=C(O)CCCCCCCCCCCCCCC(=O)*; γGlu = O=C(O)[C@H](CCC(=O)[*:2])N[*:1]; Api = NC1(C(=O)O)CCNCC1; AEEA = NCCOCCOCC(=O)O; Aib = CC(C)(N)C(=O)O; Propionyl = CCC(=O)*; Butyryl = CCCC(=O)*
# T1: CRF1R receptor (UniProt P34998 24-415, limits assumed)
# T1 sequence (looked up): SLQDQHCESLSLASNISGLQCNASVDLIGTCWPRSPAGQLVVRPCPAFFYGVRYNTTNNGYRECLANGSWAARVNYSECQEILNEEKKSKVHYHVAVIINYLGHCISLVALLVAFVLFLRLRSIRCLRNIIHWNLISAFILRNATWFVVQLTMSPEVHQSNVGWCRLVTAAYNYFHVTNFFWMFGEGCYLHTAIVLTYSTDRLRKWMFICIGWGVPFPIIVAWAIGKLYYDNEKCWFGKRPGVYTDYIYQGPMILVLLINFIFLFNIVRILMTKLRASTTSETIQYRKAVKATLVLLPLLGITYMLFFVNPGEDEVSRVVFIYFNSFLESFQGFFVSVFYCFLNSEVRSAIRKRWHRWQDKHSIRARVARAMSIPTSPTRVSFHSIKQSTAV
# B1: SEQ ID NO 56 (peptide)
# peptide: Ac-IVLSLD[dV]PIKLK([γGlu-C16 diacid])KILLEQEKQKKQREQAETNEQILAQV-NH2
# SMILES: CC[C@H](C)[C@H](NC(C)=O)C(=O)N[C@H](C(=O)N[C@@H](CC(C)C)C(=O)N[C@@H](CO)C(=O)N[C@@H](CC(C)C)C(=O)N[C@@H](CC(=O)O)C(=O)N[C@@H](C(=O)N1CCC[C@H]1C(=O)N[C@H](C(=O)N[C@@H](CCCCN)C(=O)N[C@@H](CC(C)C)C(=O)N[C@@H](CCCCNC(=O)CC[C@H](NC(=O)CCCCCCCCCCCCCCC(=O)O)C(=O)O)C(=O)N[C@@H](CCCCN)C(=O)N[C@H](C(=O)N[C@@H](CC(C)C)C(=O)N[C@@H](CC(C)C)C(=O)N[C@@H](CCC(=O)O)C(=O)N[C@@H](CCC(N)=O)C(=O)N[C@@H](CCC(=O)O)C(=O)N[C@@H](CCCCN)C(=O)N[C@@H](CCC(N)=O)C(=O)N[C@@H](CCCCN)C(=O)N[C@@H](CCCCN)C(=O)N[C@@H](CCC(N)=O)C(=O)N[C@@H](CCCNC(=N)N)C(=O)N[C@@H](CCC(=O)O)C(=O)N[C@@H](CCC(N)=O)C(=O)N[C@@H](C)C(=O)N[C@@H](CCC(=O)O)C(=O)N[C@H](C(=O)N[C@@H](CC(N)=O)C(=O)N[C@@H](CCC(=O)O)C(=O)N[C@@H](CCC(N)=O)C(=O)N[C@H](C(=O)N[C@@H](CC(C)C)C(=O)N[C@@H](C)C(=O)N[C@@H](CCC(N)=O)C(=O)N[C@H](C(N)=O)C(C)C)[C@@H](C)CC)[C@@H](C)O)[C@@H](C)CC)[C@@H](C)CC)C(C)C)C(C)C
# B2: SEQ ID NO 78 (peptide)
# peptide: Propionyl-VLSLD[dV]PIKLK([γGlu-C16 diacid])KILLEQEKQKKQREQAETN[Aib]QILAQV-NH2
# SMILES: CCC(=O)N[C@H](C(=O)N[C@@H](CC(C)C)C(=O)N[C@@H](CO)C(=O)N[C@@H](CC(C)C)C(=O)N[C@@H](CC(=O)O)C(=O)N[C@@H](C(=O)N1CCC[C@H]1C(=O)N[C@H](C(=O)N[C@@H](CCCCN)C(=O)N[C@@H](CC(C)C)C(=O)N[C@@H](CCCCNC(=O)CC[C@H](NC(=O)CCCCCCCCCCCCCCC(=O)O)C(=O)O)C(=O)N[C@@H](CCCCN)C(=O)N[C@H](C(=O)N[C@@H](CC(C)C)C(=O)N[C@@H](CC(C)C)C(=O)N[C@@H](CCC(=O)O)C(=O)N[C@@H](CCC(N)=O)C(=O)N[C@@H](CCC(=O)O)C(=O)N[C@@H](CCCCN)C(=O)N[C@@H](CCC(N)=O)C(=O)N[C@@H](CCCCN)C(=O)N[C@@H](CCCCN)C(=O)N[C@@H](CCC(N)=O)C(=O)N[C@@H](CCCNC(=N)N)C(=O)N[C@@H](CCC(=O)O)C(=O)N[C@@H](CCC(N)=O)C(=O)N[C@@H](C)C(=O)N[C@@H](CCC(=O)O)C(=O)N[C@H](C(=O)N[C@@H](CC(N)=O)C(=O)NC(C)(C)C(=O)N[C@@H](CCC(N)=O)C(=O)N[C@H](C(=O)N[C@@H](CC(C)C)C(=O)N[C@@H](C)C(=O)N[C@@H](CCC(N)=O)C(=O)N[C@H](C(N)=O)C(C)C)[C@@H](C)CC)[C@@H](C)O)[C@@H](C)CC)[C@@H](C)CC)C(C)C)C(C)C
# B3: SEQ ID NO 47 (peptide)
# peptide: Ac-IVLSLD[dV]PIKLK([γGlu-C16 diacid])KILLEQEKQKKQREQAETNAQILAQV-NH2
# SMILES: CC[C@H](C)[C@H](NC(C)=O)C(=O)N[C@H](C(=O)N[C@@H](CC(C)C)C(=O)N[C@@H](CO)C(=O)N[C@@H](CC(C)C)C(=O)N[C@@H](CC(=O)O)C(=O)N[C@@H](C(=O)N1CCC[C@H]1C(=O)N[C@H](C(=O)N[C@@H](CCCCN)C(=O)N[C@@H](CC(C)C)C(=O)N[C@@H](CCCCNC(=O)CC[C@H](NC(=O)CCCCCCCCCCCCCCC(=O)O)C(=O)O)C(=O)N[C@@H](CCCCN)C(=O)N[C@H](C(=O)N[C@@H](CC(C)C)C(=O)N[C@@H](CC(C)C)C(=O)N[C@@H](CCC(=O)O)C(=O)N[C@@H](CCC(N)=O)C(=O)N[C@@H](CCC(=O)O)C(=O)N[C@@H](CCCCN)C(=O)N[C@@H](CCC(N)=O)C(=O)N[C@@H](CCCCN)C(=O)N[C@@H](CCCCN)C(=O)N[C@@H](CCC(N)=O)C(=O)N[C@@H](CCCNC(=N)N)C(=O)N[C@@H](CCC(=O)O)C(=O)N[C@@H](CCC(N)=O)C(=O)N[C@@H](C)C(=O)N[C@@H](CCC(=O)O)C(=O)N[C@H](C(=O)N[C@@H](CC(N)=O)C(=O)N[C@@H](C)C(=O)N[C@@H](CCC(N)=O)C(=O)N[C@H](C(=O)N[C@@H](CC(C)C)C(=O)N[C@@H](C)C(=O)N[C@@H](CCC(N)=O)C(=O)N[C@H](C(N)=O)C(C)C)[C@@H](C)CC)[C@@H](C)O)[C@@H](C)CC)[C@@H](C)CC)C(C)C)C(C)C
# B4: SEQ ID NO 99 (peptide)
# peptide: Ac-VLSLD[dV]PIKLK([AEEA-AEEA-γGlu-C18 diacid])KILLEQEKQKKQREQAETN[Aib]QILAQV-NH2
# SMILES: CC[C@H](C)[C@H](NC(=O)[C@H](CCC(N)=O)NC(=O)C(C)(C)NC(=O)[C@H](CC(N)=O)NC(=O)[C@@H](NC(=O)[C@H](CCC(=O)O)NC(=O)[C@H](C)NC(=O)[C@H](CCC(N)=O)NC(=O)[C@H](CCC(=O)O)NC(=O)[C@H](CCCNC(=N)N)NC(=O)[C@H](CCC(N)=O)NC(=O)[C@H](CCCCN)NC(=O)[C@H](CCCCN)NC(=O)[C@H](CCC(N)=O)NC(=O)[C@H](CCCCN)NC(=O)[C@H](CCC(=O)O)NC(=O)[C@H](CCC(N)=O)NC(=O)[C@H](CCC(=O)O)NC(=O)[C@H](CC(C)C)NC(=O)[C@H](CC(C)C)NC(=O)[C@@H](NC(=O)[C@H](CCCCN)NC(=O)[C@H](CCCCNC(=O)COCCOCCNC(=O)COCCOCCNC(=O)CC[C@H](NC(=O)CCCCCCCCCCCCCCCCC(=O)O)C(=O)O)NC(=O)[C@H](CC(C)C)NC(=O)[C@H](CCCCN)NC(=O)[C@@H](NC(=O)[C@@H]1CCCN1C(=O)[C@H](NC(=O)[C@H](CC(=O)O)NC(=O)[C@H](CC(C)C)NC(=O)[C@H](CO)NC(=O)[C@H](CC(C)C)NC(=O)[C@@H](NC(C)=O)C(C)C)C(C)C)[C@@H](C)CC)[C@@H](C)CC)[C@@H](C)O)C(=O)N[C@@H](CC(C)C)C(=O)N[C@@H](C)C(=O)N[C@@H](CCC(N)=O)C(=O)N[C@H](C(N)=O)C(C)C
# B5: SEQ ID NO 57 (peptide)
# peptide: Ac-IVLSLD[dV]PIKLK([γGlu-C16 diacid])KILLEQEKQKKQREQAETN[Api]QILAQV-NH2
# SMILES: CC[C@H](C)[C@H](NC(C)=O)C(=O)N[C@H](C(=O)N[C@@H](CC(C)C)C(=O)N[C@@H](CO)C(=O)N[C@@H](CC(C)C)C(=O)N[C@@H](CC(=O)O)C(=O)N[C@@H](C(=O)N1CCC[C@H]1C(=O)N[C@H](C(=O)N[C@@H](CCCCN)C(=O)N[C@@H](CC(C)C)C(=O)N[C@@H](CCCCNC(=O)CC[C@H](NC(=O)CCCCCCCCCCCCCCC(=O)O)C(=O)O)C(=O)N[C@@H](CCCCN)C(=O)N[C@H](C(=O)N[C@@H](CC(C)C)C(=O)N[C@@H](CC(C)C)C(=O)N[C@@H](CCC(=O)O)C(=O)N[C@@H](CCC(N)=O)C(=O)N[C@@H](CCC(=O)O)C(=O)N[C@@H](CCCCN)C(=O)N[C@@H](CCC(N)=O)C(=O)N[C@@H](CCCCN)C(=O)N[C@@H](CCCCN)C(=O)N[C@@H](CCC(N)=O)C(=O)N[C@@H](CCCNC(=N)N)C(=O)N[C@@H](CCC(=O)O)C(=O)N[C@@H](CCC(N)=O)C(=O)N[C@@H](C)C(=O)N[C@@H](CCC(=O)O)C(=O)N[C@H](C(=O)N[C@@H](CC(N)=O)C(=O)NC1(C(=O)N[C@@H](CCC(N)=O)C(=O)N[C@H](C(=O)N[C@@H](CC(C)C)C(=O)N[C@@H](C)C(=O)N[C@@H](CCC(N)=O)C(=O)N[C@H](C(N)=O)C(C)C)[C@@H](C)CC)CCNCC1)[C@@H](C)O)[C@@H](C)CC)[C@@H](C)CC)C(C)C)C(C)C
# B6: SEQ ID NO 79 (peptide)
# peptide: Butyryl-VLSLD[dV]PIKLK([γGlu-C16 diacid])KILLEQEKQKKQREQAETN[Aib]QILAQV-NH2
# SMILES: CCCC(=O)N[C@H](C(=O)N[C@@H](CC(C)C)C(=O)N[C@@H](CO)C(=O)N[C@@H](CC(C)C)C(=O)N[C@@H](CC(=O)O)C(=O)N[C@@H](C(=O)N1CCC[C@H]1C(=O)N[C@H](C(=O)N[C@@H](CCCCN)C(=O)N[C@@H](CC(C)C)C(=O)N[C@@H](CCCCNC(=O)CC[C@H](NC(=O)CCCCCCCCCCCCCCC(=O)O)C(=O)O)C(=O)N[C@@H](CCCCN)C(=O)N[C@H](C(=O)N[C@@H](CC(C)C)C(=O)N[C@@H](CC(C)C)C(=O)N[C@@H](CCC(=O)O)C(=O)N[C@@H](CCC(N)=O)C(=O)N[C@@H](CCC(=O)O)C(=O)N[C@@H](CCCCN)C(=O)N[C@@H](CCC(N)=O)C(=O)N[C@@H](CCCCN)C(=O)N[C@@H](CCCCN)C(=O)N[C@@H](CCC(N)=O)C(=O)N[C@@H](CCCNC(=N)N)C(=O)N[C@@H](CCC(=O)O)C(=O)N[C@@H](CCC(N)=O)C(=O)N[C@@H](C)C(=O)N[C@@H](CCC(=O)O)C(=O)N[C@H](C(=O)N[C@@H](CC(N)=O)C(=O)NC(C)(C)C(=O)N[C@@H](CCC(N)=O)C(=O)N[C@H](C(=O)N[C@@H](CC(C)C)C(=O)N[C@@H](C)C(=O)N[C@@H](CCC(N)=O)C(=O)N[C@H](C(N)=O)C(C)C)[C@@H](C)CC)[C@@H](C)O)[C@@H](C)CC)[C@@H](C)CC)C(C)C)C(C)C
# Target: T1, CRF1R receptor
# Assay: cell-based or functional assay
row,Emax (% I) [%],Binder
1,3,B1
2,7,B2
3,10,B3
4,0,B4
5,24,B5
6,10,B6

# Target: human corticotropin-releasing factor 2a (CRF2a receptor) (human), Q13324
# Assay: cell-based or functional assay
# human corticotropin-releasing factor 2a (CRF2a receptor) (human), Q13324, sequence (Q13324 20-411): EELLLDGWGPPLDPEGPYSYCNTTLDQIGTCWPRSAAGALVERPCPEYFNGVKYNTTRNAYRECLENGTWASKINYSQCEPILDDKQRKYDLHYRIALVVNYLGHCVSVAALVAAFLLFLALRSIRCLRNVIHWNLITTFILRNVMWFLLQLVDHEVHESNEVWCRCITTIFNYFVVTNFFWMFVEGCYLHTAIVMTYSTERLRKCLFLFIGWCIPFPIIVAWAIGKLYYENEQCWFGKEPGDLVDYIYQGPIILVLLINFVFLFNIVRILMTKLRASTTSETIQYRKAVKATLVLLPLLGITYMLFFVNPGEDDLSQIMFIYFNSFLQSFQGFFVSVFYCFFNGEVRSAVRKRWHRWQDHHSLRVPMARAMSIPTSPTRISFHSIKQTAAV
row,EC50 [nM] (cAMP),Binder
1,0.3,B1
2,0.73,B2
3,0.09,B3
4,6.07,B4
5,0.39,B5
6,0.38,B6
